The values that follow come from US8071547B2, “Compositions of alpha-fetoprotein and inducers of apoptosis for the treatment of cancer” (Constab Pharmaceutical, Inc., priority 2006, dated 2011).

Like-named read-outs stand apart in the source and are kept apart here.

Series [1] concerns monoclonal antibody to HAFP. The experiment in a line: Membrane EIA Alpha-fetoprotein test. The settings on record: compared to human AFP sample. In kind it is binding. As for the experimental part:
(§1) PAFP extracted by the methods detailed above was analyzed using two different immune-enzyme kits in order to detect the presence of PAFP in the extraction obtained from the methods detailed above. PAFP samples were compared to AFP isolated from human serum and amniotic fluid. Initially, samples were subjected to the membrane EIA Alpha-fetoprotein test (catalog #410-1, IND Diagnostic Inc., Vancouver, Canada) which incorporates a monoclonal antibody to HAFP. […] A second test kit incorporating a polyclonal antibody to HAFP (catalog number T-8456, AFP-EIA-BEST-Strip, Vector-BEST, Novosibirsk, Russia) was then used to assay the presence of PAFP in the extraction.

The test system of series [2] is polyclonal antibody to HAFP. The experiment in a line: AFP-EIA-BEST-Strip test. In kind it is binding. As for the experimental part:
as §1

Series [3] relates to cancer cells. The experiment in a line: Comparison of AFP properties: anticancer activity (Table 1). The conditions noted are these: applicant's studies (Examples 4 to 8). The text has this: The present invention involves the use of exogenous alpha-fetoprotein (AFP) acting as a carrier or transporter of apoptosis-inducing agents directly to cancer cells resulting in the apoptosis of the cancer cells. U.S. Pat. Nos. 6,630,445 and 6,534,479 describe the use of recombinant human AFP for conjugation with cytotoxic agents.
(NCBI Blast analysis is available on the world wide web at ncbi.nlm.nih.gov/blast/; Parker, M. H. et al., Protein Expression and Purification, 38:177-183, 2004).

The conditions of series [4]: in the fetus; cited from earlier work.
The test system of series [5] is cancer cells. The conditions noted are these: literature; cited from earlier work.

B1: PAFP: porcine alpha-fetoprotein, butanol-extracted from blood and amniotic fluid of embryos of 3 to 14 weeks gestation (protein, UniProt Q8MJ76 19-610, looked up)
Alpha-fetoprotein: RTMHENAYGIASILDSSQCSAEMNLVDLATIFFAQFVQEATYKEVNQMVKDVLTVIEKSTGSEQPAGCLENQVSVFLEEICHEEEIPEKYGLSHCCSQSGEERHNCFLARKKAAPASIPPFQVPEPVTSCKAYEENRELFMTRYIYEIARRHPFLYAPTILSLAAQYDKIIPPCCKAENAVECFQTKAASITKELRESSLLNQHMCTVMRQFGARTFRAITVTKLSQKFPKANFTEIQKLVLDVAHIHEECCRGNVLECLQDAERVVSYVCSQQDTLSSKIAECCKLPTTLELGQCIIHAENDDKPEGLSPNLNRFLGERDFNQLSSREKDLSMARFTYEYSRRHPKLAVPVILRVAKGYQELLEKCSQSENPLECQDKGEEELEKYIQESQALAKRSCGLFQKLGEYYLQNAFLVAYTKKAPQLTPPELMALTRKMATTGAACCHLSEDRQLACGEGAADLIIGQLCIRHEEMPINPGVGQCCTSSYANRRPCFSSLVLDETYVPPPFSDDKFIFHKDLCQAQGVALQTMKQQFLINLVKQKPQITEEQLEAVIADFSGLLEKCCQGQEQEVCFAEEGPALISKTRASLGV
For B1, in series [1], the “Reaction with EIA Alpha-fetoprotein test kit” value is given as “did not produce a reaction”. Also, in series [2], the “Reaction with AFP-EIA-BEST-Strip kit” value is given as “positive reaction”. Besides, in series [3], the “Anticancer activity (AFP-mediated delivery of apoptosis-inducing agent bound to cancer cells)” value was “Yes”.

B2: AFP: alpha-fetoprotein, major transport glycoprotein in the fetus (protein, UniProt P02771 19-609, looked up)
Alpha-fetoprotein: RTLHRNEYGIASILDSYQCTAEISLADLATIFFAQFVQEATYKEVSKMVKDALTAIEKPTGDEQSSGCLENQLPAFLEELCHEKEILEKYGHSDCCSQSEEGRHNCFLAHKKPTPASIPLFQVPEPVTSCEAYEEDRETFMNKFIYEIARRHPFLYAPTILLWAARYDKIIPSCCKAENAVECFQTKAATVTKELRESSLLNQHACAVMKNFGTRTFQAITVTKLSQKFTKVNFTEIQKLVLDVAHVHEHCCRGDVLDCLQDGEKIMSYICSQQDTLSNKITECCKLTTLERGQCIIHAENDEKPEGLSPNLNRFLGDRDFNQFSSGEKNIFLASFVHEYSRRHPQLAVSVILRVAKGYQELLEKCFQTENPLECQDKGEEELQKYIQESQALAKRSCGLFQKLGEYYLQNAFLVAYTKKAPQLTSSELMAITRKMAATAATCCQLSEDKLLACGEGAADIIIGHLCIRHEMTPVNPGVGQCCTSSYANRRPCFSSLVVDETYVPPAFSDDKFIFHKDLCQAQGVALQTMKQEFLINLVKQKPQITEEQLEAVIADFSGLLEKCCQGQEQEVCFAEEGQKLISKTRAALGV
On to B2, for which, in series [4], the halflife was 72 to 120 h.

B3: HAFP: human alpha-fetoprotein (protein, UniProt P02771 19-609, looked up)
Alpha-fetoprotein: RTLHRNEYGIASILDSYQCTAEISLADLATIFFAQFVQEATYKEVSKMVKDALTAIEKPTGDEQSSGCLENQLPAFLEELCHEKEILEKYGHSDCCSQSEEGRHNCFLAHKKPTPASIPLFQVPEPVTSCEAYEEDRETFMNKFIYEIARRHPFLYAPTILLWAARYDKIIPSCCKAENAVECFQTKAATVTKELRESSLLNQHACAVMKNFGTRTFQAITVTKLSQKFTKVNFTEIQKLVLDVAHVHEHCCRGDVLDCLQDGEKIMSYICSQQDTLSNKITECCKLTTLERGQCIIHAENDEKPEGLSPNLNRFLGDRDFNQFSSGEKNIFLASFVHEYSRRHPQLAVSVILRVAKGYQELLEKCFQTENPLECQDKGEEELQKYIQESQALAKRSCGLFQKLGEYYLQNAFLVAYTKKAPQLTSSELMAITRKMAATAATCCQLSEDKLLACGEGAADIIIGHLCIRHEMTPVNPGVGQCCTSSYANRRPCFSSLVVDETYVPPAFSDDKFIFHKDLCQAQGVALQTMKQEFLINLVKQKPQITEEQLEAVIADFSGLLEKCCQGQEQEVCFAEEGQKLISKTRAALGV
Take B3: in series [5], the “Anticancer activity (AFP-mediated delivery of apoptosis-inducing agent bound to cancer cells)” value was “Yes”.
